Source: paper PMC12075686, “Structural basis of phosphorylation-independent nuclear import of CIRBP by TNPO3” (Nature Communications, 2025)

Key:
TNPO3 = details: SAXS, monomer/dimer equilibrium; read-out: dissociation constant of TNPO3 dimerization in solution; cited from earlier work
Text: We next aimed to gain insight into the structural basis for TNPO3 recognition of RSY-NLS and obtained crystals of TNPO3 C511A bound to CIRBP^RSY that diffracted X-rays to 2.94 Å resolution. This TNPO3 mutant was used for the determination of the 3D X-ray structure of the TNPO3-SRSF1 complex and increases TNPO3 stability. […] TNPO3 forms a dimer in the asymmetric unit of the crystal structure, as previously observed ... || page 9: Figure 2: Is TNPO3 a monomer in solution? In order for the reader to understand where are the additional contact points described in Sup Fig 2, a global view of the different contact points would be helpful. […] Out of the additional contact points in the crystal structure, the intermolecular salt bridge of E304 with K877 is the only contact which we could observe in both directions (chain A – chain B and vice versa). We in ...

[1] = target: T1, Transportin 3 (TNPO3), full-length wild type (human, UniProt Q9Y5L0 1-923); assay: ITC
T1 chain: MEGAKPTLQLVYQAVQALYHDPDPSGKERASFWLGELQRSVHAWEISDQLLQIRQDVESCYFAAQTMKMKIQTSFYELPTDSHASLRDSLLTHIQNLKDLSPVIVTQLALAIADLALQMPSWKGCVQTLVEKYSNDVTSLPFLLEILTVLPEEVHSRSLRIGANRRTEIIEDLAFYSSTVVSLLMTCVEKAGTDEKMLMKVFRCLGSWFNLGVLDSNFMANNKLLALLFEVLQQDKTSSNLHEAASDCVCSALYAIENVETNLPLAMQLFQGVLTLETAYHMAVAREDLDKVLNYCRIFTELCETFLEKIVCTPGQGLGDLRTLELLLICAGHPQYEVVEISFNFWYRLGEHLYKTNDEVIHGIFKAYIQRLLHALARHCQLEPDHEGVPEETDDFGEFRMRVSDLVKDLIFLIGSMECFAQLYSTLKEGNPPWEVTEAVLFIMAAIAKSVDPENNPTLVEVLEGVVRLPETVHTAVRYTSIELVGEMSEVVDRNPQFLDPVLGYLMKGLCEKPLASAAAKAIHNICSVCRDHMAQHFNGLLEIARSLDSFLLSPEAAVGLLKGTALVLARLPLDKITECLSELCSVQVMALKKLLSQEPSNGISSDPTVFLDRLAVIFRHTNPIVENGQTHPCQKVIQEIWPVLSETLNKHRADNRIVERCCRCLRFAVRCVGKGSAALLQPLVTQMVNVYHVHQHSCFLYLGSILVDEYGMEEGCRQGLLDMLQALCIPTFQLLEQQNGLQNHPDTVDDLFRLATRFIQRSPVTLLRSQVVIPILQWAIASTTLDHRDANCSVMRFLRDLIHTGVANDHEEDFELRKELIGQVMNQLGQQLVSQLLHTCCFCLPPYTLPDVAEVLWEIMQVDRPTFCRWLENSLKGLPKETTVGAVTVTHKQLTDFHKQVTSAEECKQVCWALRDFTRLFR

[2] = target: T2, Transportin 3 (TNPO3), full-length wild type (human, UniProt Q9Y5L0 1-923); assay: ITC; 100 µM ligand in the syringe injected (28 x 10 µL) into 10 µM TNPO3 (WT or C511A) in the cell; 25 °C; 50 mM Tris-HCl pH 7.5, 150 mM NaCl, 2 mM TCEP, 0.04% NaN3; details: both partners purified
T2 construct: Transportin 3 (TNPO3), human, full-length wild type; For the NMR experiments made 15N-labelled with 13C-methyl labelling of isoleucine and methionine side chains ([IM-methyl 13C]); Vector pETM11-His6-protein A with a TEV site downstream of the protein A tag; also called TNPO3 WT; TNPO3 FL WT; source: E. coli BL21-(DE3) Star, purified (Ni-NTA, TEV cleavage, second Ni-NTA, SEC Superdex 200); not …
T2 sequence (looked up): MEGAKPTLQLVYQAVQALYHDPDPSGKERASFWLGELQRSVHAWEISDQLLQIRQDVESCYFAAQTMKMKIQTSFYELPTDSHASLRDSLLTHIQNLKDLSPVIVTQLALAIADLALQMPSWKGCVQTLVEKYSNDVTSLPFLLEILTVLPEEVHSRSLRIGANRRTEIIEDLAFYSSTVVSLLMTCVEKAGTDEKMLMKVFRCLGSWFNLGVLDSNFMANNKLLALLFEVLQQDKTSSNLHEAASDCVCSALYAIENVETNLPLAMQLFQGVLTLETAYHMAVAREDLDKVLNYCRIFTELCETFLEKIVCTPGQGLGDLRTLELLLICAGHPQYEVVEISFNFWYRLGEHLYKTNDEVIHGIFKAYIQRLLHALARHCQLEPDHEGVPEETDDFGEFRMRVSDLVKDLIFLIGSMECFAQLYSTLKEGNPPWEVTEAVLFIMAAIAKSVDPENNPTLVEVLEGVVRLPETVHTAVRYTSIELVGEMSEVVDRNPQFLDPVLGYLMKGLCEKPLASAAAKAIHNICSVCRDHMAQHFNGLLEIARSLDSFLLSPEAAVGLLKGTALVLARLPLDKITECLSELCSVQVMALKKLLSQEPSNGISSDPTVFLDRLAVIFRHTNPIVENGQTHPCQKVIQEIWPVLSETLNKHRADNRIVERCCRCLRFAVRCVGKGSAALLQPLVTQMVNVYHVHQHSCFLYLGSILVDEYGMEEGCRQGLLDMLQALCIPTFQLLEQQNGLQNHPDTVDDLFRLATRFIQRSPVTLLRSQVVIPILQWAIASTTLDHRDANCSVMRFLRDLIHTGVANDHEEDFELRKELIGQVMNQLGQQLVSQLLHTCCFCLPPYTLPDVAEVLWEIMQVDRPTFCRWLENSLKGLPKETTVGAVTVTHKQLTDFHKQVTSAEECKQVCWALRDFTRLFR

[3] = target: T3, Transportin 3 (TNPO3) C511A mutant (human, UniProt Q9Y5L0 1-923, C511A); assay: as above; details: both partners purified
T3 construct: Transportin 3 (TNPO3), human, C511A mutant that increases stability; Two chains in the asymmetric unit of 8CMK; source: E. coli BL21-(DE3) Star, purified (Ni-NTA, TEV cleavage, second Ni-NTA, SEC Superdex 200)
T3 sequence: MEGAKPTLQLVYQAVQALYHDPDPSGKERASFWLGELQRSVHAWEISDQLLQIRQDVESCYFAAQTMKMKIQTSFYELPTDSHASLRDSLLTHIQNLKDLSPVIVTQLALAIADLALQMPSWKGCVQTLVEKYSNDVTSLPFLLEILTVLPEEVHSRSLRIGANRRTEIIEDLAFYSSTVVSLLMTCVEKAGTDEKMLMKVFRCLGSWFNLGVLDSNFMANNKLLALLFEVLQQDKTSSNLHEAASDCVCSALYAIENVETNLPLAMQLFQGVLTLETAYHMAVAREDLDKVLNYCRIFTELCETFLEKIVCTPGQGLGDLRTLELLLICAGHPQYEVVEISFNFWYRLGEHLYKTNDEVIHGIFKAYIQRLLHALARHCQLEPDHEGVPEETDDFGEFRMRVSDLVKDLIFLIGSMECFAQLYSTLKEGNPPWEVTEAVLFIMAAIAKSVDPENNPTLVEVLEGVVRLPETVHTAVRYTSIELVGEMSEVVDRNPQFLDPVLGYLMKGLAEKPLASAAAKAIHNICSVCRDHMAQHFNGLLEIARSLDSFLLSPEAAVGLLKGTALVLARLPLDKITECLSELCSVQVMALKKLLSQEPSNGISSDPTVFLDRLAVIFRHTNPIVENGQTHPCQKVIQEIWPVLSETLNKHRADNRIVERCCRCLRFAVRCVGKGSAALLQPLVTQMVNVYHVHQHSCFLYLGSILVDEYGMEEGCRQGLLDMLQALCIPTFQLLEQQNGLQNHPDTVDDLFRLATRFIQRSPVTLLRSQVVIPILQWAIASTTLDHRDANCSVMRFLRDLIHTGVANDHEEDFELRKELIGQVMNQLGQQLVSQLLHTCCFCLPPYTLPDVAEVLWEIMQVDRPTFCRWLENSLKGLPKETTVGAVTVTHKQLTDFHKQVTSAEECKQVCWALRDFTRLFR

[4] = target: T1, Transportin 3 (TNPO3), full-length wild …; assay: ITC; rep2

Molecule	Kd (TNPO3)	Kd [1]	Kd [2]	Kd [3]	Kd [4]
TNPO3: Transportin 3, nuclear import receptor; here its own monomer/dimer equilibrium	8.3 ± 1 µM	–	–	–	–
SRDYYSSRSQSGGYSDRSSGGSYRDSYDSYATHNE (domain or fragment, human, UniProt Q14011 138-172, looked up, Only residues 158-171 were modelled in PDB 8CMK; also called CIRBP^RSY; RSY-NLS; source: E. coli BL21-(DE3) Star, purified (denaturing lysis, Ni-NTA, TEV cleavage, second Ni-NTA, SEC Superdex 30); not shown: His6, N-terminal, cleaved; protein A, N-terminal, cleaved) [RSY region of cold-inducible RNA-binding protein (CIRBP), residues 138-172]	–	0.87 µM	0.61 ± 0.1 µM	0.97 ± 0.13 µM	0.87 µM
